Data as given in the nanobody polyreactivity screen of Harvey et al. (2022).

Assay: yeast display, Sf9 membrane polyspecificity reagent, FACS + sequencing; frameworks hold sequencing errors
Summary of the method: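 Synthetic nanobody libraries on Saccharomyces cerevisiae BJ5465 were galactose-induced for 36–48 hours, stained 1 hour at 4 °C with 10% biotinylated, detergent-solubilized Sf9 membrane reagent and enriched on streptavidin microbeads. FACS then separated cells into low and high (top ~1%) gates by anti-HA (expression) and streptavidin (reagent binding) fluorescence. Genes were colony-PCR amplified, MiSeq 2 × 250 sequenced and CDR-length filtered. A clone's polyreactivity label is that of its gate of origin.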

Row | Sequence | polyreactivity (PSR sort gate)
1 | QVQLVESGGGLVQAGGSLRLSCAASGRTFARNAMGWYRQAAGKERELVAAITSIGTRTYYADAVKGRFTISRDNAKNTVYLQMNSLKPEDTAVYYCNKKRTADYDYWGQGTQVSVSS | low polyreactivity
2 | QVQLVESGGGLVQAGGSLRLSCAASGRTFARYAMGWYRQAPGKERELVAAISRGGTTNYADSVKGRFTISRDNAKNTVYLQMNSLKPEDTAVYYCNRDFHLIHLSSARLDYWGQGTQVTVSS | low polyreactivity
3 | QVQLVESGGGLVQAGGSLRLSCAASGRTFARYAMGWYRQAPGKERELVAAITRRGGSTYYADSVKGRFTISRDNAQNTVYLQMNSLKPEDTAVYYCAVPWYTRESGAYDYWGQGTQVTVSS | high polyreactivity
4 | QVQLVESGGGLVQAGGSLRLSCAASGRTFARYAMGWYRQAPGKERELVARISSGGSTYYADSVKGRFTISRDNAKNTVYLQMNSLKPEDTAVYYCAASGWRYRYDYWGQGTQVTVSS | high polyreactivity
5 | QVQLVESGGGLVQAGGSLRLSCAASGRTFARYGMGWYRQAPGKERELVATINWRSAGSTYYADSVKGRFTISRDNAKNTVYLLMNSLKPEDTAVYYCNVDSGRSYRVARYDYWGQGTQVTVSS | low polyreactivity
6 | QVQLVESGGGLVQAGGSLRLSCAASGRTFARYTMGWYRQAPGKERELVASITRGGSTYYADSVKGRFTISRDNAKNTVYLQMNSLKPEDTAVYYCAARFPQHNYWAMDYWGQGTQVTVSS | high polyreactivity
7 | QVQLVESGGGLVQAGGSLRLSCAASGRTFASNAMGWYRQAPGKERELVAAISVTGGRTYYADSVKGRFTISRDNAKNTVYLQMNRLKPEDTAVYYCAKDLTLFSGPFPEFGYWGQGTQVTVSS | low polyreactivity
8 | QVQLVESGGGLVQAGGSLRLSCAASGRTFASYAMGWYRQAPGKERELVASIRYSGGSTHYADSVKGRFTISRDNAKNTVYLQMNSLKPEDTAVNYCNARPKFRTYNYWGQGTQVTVSS | high polyreactivity
9 | QVQLVESGGGLVQAGGSLRLSCAASGRTFASYAMGWYRQAPGKERELVAVISRGGSNTNYADSVKGRFTISRDNAKNTVYLQLNSLKPEDTAVYYCADLAFKRYNPGGYDYWGQGTQVTVSS | high polyreactivity
10 | QVQLVESGGGLVQAGGSLRLSCAASGRTFASYDMGWYRQEPGKERELVAAISVSGDSTYYADSVKGRFTISRDNAKNTFYLQMNSLKPEDTAVYYCNAEAQDYDHDYWGQSTQVTVSS | low polyreactivity
11 | QVQLVESGGGLVQAGGSLRLSCAASGRTFASYGMGWYRQAPGKHRELVASITRRGGSTYYADSVKGRFTISRDNAKNTVYLQMNSLKPEDTAVYYCAATRVRSASYSIEYDYWGQGTQVTVSS | high polyreactivity
12 | QVQLVESGGGLVQAGGSLRLSCAASGRTFAVYAMGWYRPAPGKERELVAGITSGGSTNYADSVKGRFTISRDNAKNTVYLQMNSLKPEDTAVYYCAAENVYAGFGFVSIGDYWGQGTQVTVSS | low polyreactivity
13 | QVQLVESGGGLVQAGGSLRLSCAASGRTFAVYAMGWYRQAPGKERELDAAITYGGGRTYYADSVKGRFTISRDNAKNTVYLQMYSLKPEDTAVYYCAADYYGTDYDYWGQGTQVTVSS | low polyreactivity
14 | QVQLVESGGGLVQAGGSLRLSCAASGRTFAVYSMGWYRQATGKERELVAVISSGGGTDYADSVKGRFRISRDNAKNTVYLQMNSLNPEDTAVYYCAADSVTFLATQPGDYWGQGTQVTVSS | low polyreactivity
15 | QVQLVESGGGLVQAGGSLRLSCAASGRTFAVYTMGWYRQAPGKERELVARIRYSGGNTYYADSVKGRFTISRENAKNTVYLQMNSLKPEDTAVYYCAARSRYRIYASRNFDYWGQGTQVTVSS | high polyreactivity
16 | QVQLVESGGGLVQAGGSLRLSCAASGRTFAWYAMGWYIEAPGKERELVAAISSGGSTYYADSVKGRFTISRDNAKNTVYLQMNSLKPEDTAVYYCATRYAIAGWVGYYYWGQCTQVTVSS | low polyreactivity
17 | QVQLVESGGGLVQAGGSLRLSCAASGRTFAWYAMGWYRQAPGKERELVAAISNVGSTYYADSVKGRFTISRDNAKNTVYLHMNSLKPEHTAVYYCNADAVSTDGREYWGQGTQVTVSS | low polyreactivity
18 | QVQLVESGGGLVQAGGSLRLSCAASGRTFAWYAMGWYRQAPGKERELVAAISWSSDTTYYADSVKGRFTISRDNAKNTVYLQMNSLKPEDTAVYYCAAVFQGYTRKYYYWGQGTQVTVSS | high polyreactivity
19 | QVQLVESGGGLVQAGGSLRLSCAASGRTFAWYTMGWYRQAPGKERELVAAISGSGGSTYYADSVKGRFTISRDNAKNTVYLQMNSLKPEDTAVYYCARRVDSYYGHTRYYYWGQGTQVTVSS | high polyreactivity
20 | QVQLVESGGGLVQAGGSLRLSCAASGRTFAWYTMGWYRQAPGKERELVAAISGSGGSTYYADSVKGRFTISRDNAKNTVYLQRKSLKPEDTAVYYCARRVHSYYGHTRYYYWGQGTQVTVSS | high polyreactivity
21 | QVQLVESGGGLVQAGGSLRLSCAASGRTFAWYTMGWYRQAPGKESELVAAISGSGGSTYYADSVKGRFTISRDNANNTVYLQMNSLKPDDTAVYYCARRVDSYYGHTRYYYWGQGTQVTVSS | high polyreactivity
22 | QVQLVESGGGLVQAGGSLRLSCAASGRTFAYNTMGWYRQAPGKERELVAAITSGGNTYYADSVKGRFTISRDNAKNTVYLQMNSLKPEDTAVYYCARYFTARLEGGYWGQGTQVTVSS | high polyreactivity

Row | Sequence | polyreactivity (PSR sort gate)
23 | QVQLVESGGGLVQAGGSLRLSCAASGRTFAYNTMGWYRQAPGKERELVARINSGTSTYYADSVKGRFTISRDNAKNTVYLEMNSLKPEDTAVYYCAARGSDYIRWYVGGRYGYWGQGSQVTVSS | low polyreactivity
24 | QVQLVESGGGLVQAGGSLRLSCAASGRTFAYYAMGWYRQAPGKERELVAAISGNGGRTYYADSVKGRFTISRDNAKNTVYLQMNSLKPEDTAVYYCNAAVGYYSYSYYTKVGVDYWGQGSQVTVSS | high polyreactivity
25 | QVQLVESGGGLVQAGGSLRLSCAASGRTFAYYAMGWYRQAPGKERELVAAITRGGSTYYADSVKGRFTISRDNAKNTVYLQMNSLKPEDTAVYYCATLYTRYDSYLVKGKYGYWGQGTQVIVSS | high polyreactivity
26 | QVQLVESGGGLVQAGGSLRLSCAASGRTFCGYTMGWYRQAPGKERELVAAITKRGGSTYYADSVKGRFTISRDNAKNTVYLQMNSLKPEDTAVYYCAKTKTAGTIKYDYWGQGTQVTVSS | high polyreactivity
27 | QVQLVESGGGLVQAGGSLRLSCAASGRTFDAYAMGWYRQAPGKERELVATITSGGGTYYADSVKGRFTISRDNEKNTVYLQMNSLKPEDYAVYYCNKRYVVSRKYDYWGQGTQVTVSS | low polyreactivity
28 | QVQLVESGGGLVQAGGSLRLSCAASGRTFDDNAMGWYRQAPGKERELVASISSGTSTNYADSVKGRFTISRDNAKNTVYVQMNCLKPEDTAVYYCNAYGPIWYTAVLGVGRYYGWTDYWGQGTQVTVSS | low polyreactivity
29 | QVQLVESGGGLVQAGGSLRLSCAASGRTFDDYAKGWYRQAPGKETEFVAAITRSGGGTHYADSVKGRFTISRDNAKNTVYLQMNSLKPEDTAVYYCAARAHGTYVRRRYDYWGQGTQVTVSS | high polyreactivity
30 | QVQLVESGGGLVQAGGSLRLSCAASGRTFDFYAMGWYRQAPGKERELVASIDWDGGSTYYADSVKGRFTISRDNAKNTVYLQMNSLKPEDTAVYYCAKDGQKFTSSLYDYWGQGTQVTVSS | low polyreactivity
31 | QVQLVESGGGLVQAGGSLRLSCAASGRTFDFYAMGWYRQAPGKERELVASNTFSTGSTTYADSVKGRFTISRDNAKITVYLQMNILKPEDTAVYYCAADGDCWWWSYVDRYDYWGQGTQVTVSS | low polyreactivity
32 | QVQLVESGGGLVQAGGSLRLSCAASGRTFDGNTMGWYRQAPGKERELVAAITKRGGSTYYADSVKGRFTFSRDNAKNTVYLQMNSLKPEDTAVYYCAKGQSYSTRLSPYYYWGQGTQVTVSS | high polyreactivity
33 | QVQLVESGGGLVQAGGSLRLSCAASGRTFDGNVMGWNRQAPGKERELVAAITASGGRTYYADSVKGRFTISRDNANNTVYIEMNSLNPEDTAVYYCAARIYRVYYVHFAPYYYWGQGTQVTVSS | high polyreactivity
34 | QVQLVESGGGLVQAGGSLRLSCAASGRTFDGYAMGWYRQAPGKERELVAAIDGGGSTNYADSVKGRFTISRDNAKNTVYLQMNSLKPEDTAVYYCAADRGSGPGYDYWGQGTQVTVSS | low polyreactivity
35 | QVQLVESGGGLVQAGGSLRLSCAASGRTFDGYAMGWYRQAPGKERELVAAIDYDGVSTYYADSVKGRFTISRDNAKNTVYLEMNSLKPEDTAVYYCAVDATDDWWLDYWGQGTQVTVSS | low polyreactivity
36 | QVQLVESGGGLVQAGGSLRLSCAASGRTFDHNAMGWYRQAPGKERELVAAITWSGGITDYADSVKRPFTISRDNAKNTVYLQMNSLKPEDTAVWGQGTQVTVSS | low polyreactivity
37 | QVQLVESGGGLVQAGGSLRLSCAASGRTFDHNTMGWYRQAPGTERELVAAISWSGGTTYYADSVKGRFTISRDNAKNTGYLQMNSLKPEDTAVYDCAADRSPGSYGYQYDYWGQGTQVTVSS | low polyreactivity
38 | QVQLVESGGGLVQAGGSLRLSCAASGRTFDKYAMGCYRPAPGTQRELVAAINSSGGSTYYSDSVKGRFTISRDNEKNTVYLQMNSLKPEDTAFYYCAALGIGSYRRYSCYDYWGQGPQVTVSS | low polyreactivity
39 | QVQLVESGGGLVQAGGSLRLSCAASGRTFDKYAMGWYRQAPGKERELVAAISGSGGRTYYADSVKGRFTISRDNETNTVYLQMNSLKPEDTAVYYCAADTRSYTYYYWGQGTQVTVSS | high polyreactivity
40 | QVQLVESGGGLVQAGGSLRLSCAASGRTFDLYDMGWYRQAPGKERELVARISYNGGITYYADSVKGRFTISRDNAKNTVYLQMNSLKPEDTAVYYCDGRYRPHFGPLFEYDYWGQGTQVTVSS | low polyreactivity
41 | QVQLVESGGGLVQAGGSLRLSCAASGRTFDPYAMGWYRQAPGKERELVASISRGGSTYADSVKGRFTISRDNAKNTVFLQMNSLKPEDTAVYYCNTSLYTEGDAMDYWGQGTQVTVSS | low polyreactivity
42 | QVQLVESGGGLVQAGGSLRLSCAASGRTFDRNARGWYRQAPGKEREVVARITIDGSTNYADSVKGRFTISRDNAKNTVYLQMNSLKPEETAVYYCATDQLSLSWYFRPYDYCYWGQVTQVTVSS | high polyreactivity
43 | QVQLVESGGGLVQAGGSLRLSCAASGRTFDRYAMGWARQAPGKERELVATISRSGGSTYYADSVKGRFTISRDNAKNTVYLQMNSLKPEDSAVYYCAARQRTTSDGWRDSWGQGTQVTVSS | high polyreactivity
